Measurements reported in the Human Domainome abundance scans (Beltran et al. 2025).

B1: Chromodomain-helicase-DNA-binding protein 4, residues 623 to 675; numbered along this chain, Q14839 (parent)
chain: MIHRILNHSVDKKGHVHYLIKWRDLPYDQASWESEDVEIQDYDLFKQSYWNHR
B2: LIM and senescent cell antigen-like-containing domain protein 2, residues 13 to 71; numbered along this chain, Q7Z4I7 (parent)
chain: AVCQRCQARFSPAERIVNSNGELYHEHCFVCAQCFRPFPEGLFYEFEGRKYCEHDFQML

Variants of: B1
Assay: abundance fitness (aPCA) (normalised: wild type 0, dead -1); higher = more abundant; growth selection in yeast, the domain comes from the species named
Settings: Homo sapiens

Abundance fitness: each site, then its substitutions
H3: Q 0.045 | S -0.047 | R -0.376 | T -0.282 | Y -0.16 | I -1.05 | N -0.266 | F -0.392 | M -0.416 | P -0.741 | W -0.245 | K -0.56 | A -0.086 | E 0.437 | V -0.629 | D 0.235 | C -0.094
I5: Y -1.02 | F -0.827 | P -0.522 | Q -0.591 | L -0.497 | H -0.721 | S -0.823 | T -0.914 | A -0.778 | D -0.999 | C -1.07 | N -1.01 | V -0.842 | W -0.767 | R -0.81 | M -0.746 | G -0.933
I2: T -0.686 | M -0.761 | Q -0.931 | F -0.945 | H -0.673 | L -0.879 | G -0.802 | C -0.662 | S -0.708 | Y -0.882 | A -0.978 | E -0.54 | K -0.82 | W -0.856 | R -0.734 | N -0.751 | V -0.589
S9: G -0.553 | P -0.766 | M -0.105 | V -0.407 | L -0.158 | K 0.139 | C -0.062 | H -0.066 | I -0.021 | A -0.398 | W -0.198 | Q -0.095 | D -0.341 | E -0.112 | R 0.156 | T -0.068 | Y -0.177 | N -0.484 | F -0.127
N7: W -0.586 | A -0.068 | G -0.356 | K -0.07 | E -0.317 | D 0.013 | Q -0.101 | T -0.162 | R -0.263 | F -0.568 | V -0.724 | L -0.438 | C -0.45 | P -0.884 | M -0.529 | H -0.26 | S -0.112 | Y -0.449
D11: G -0.597 | A -0.679 | L -0.875 | K -1.03 | I -0.812 | C -0.403 | E -0.499
V10: Q -0.377 | L -0.332 | D -0.682 | I -0.286 | Y 0.115 | T -0.093 | C -0.562 | N -0.714 | P -0.571 | R -0.262 | S -0.47 | W -0.533 | H -0.557 | M -0.495 | E -0.447 | K -0.144 | F -0.207 | G -0.895
R4: P -0.788 | T -0.047 | Q -0.233 | D -0.479 | E 0.058 | W -0.263 | K 0.145 | A -0.535 | M -0.136 | C -0.08 | H -0.108 | V -0.371 | L -0.221 | G -0.481 | N -0.331 | S -0.117 | Y -0.102
H8: K -0.956 | W -0.863 | E -0.69 | D -0.92 | M -0.847 | I -0.645 | P -0.831 | F -0.875 | A -0.857 | L -0.806 | N -0.75 | T -0.791 | G -0.832 | V -0.918 | R -0.634 | Q -0.813 | C -0.647 | S -0.713 | Y -0.803
L6: R -0.805 | S -0.824 | W -1.07 | A -0.79 | T -0.75 | D -0.907 | K -0.918 | C -0.333 | N -0.804 | Q -0.6 | P -0.695 | H -0.76 | I -0.046 | M -0.542 | F -0.73 | Y -0.735 | V -0.231
M1: Q -0.689 | V -0.015 | T -0.117 | C -0.25 | G -0.046 | L -0.324 | S -0.23 | I 0.148 | R -0.265 | K 0.112 | F -0.004 | N 0.277 | H -0.462 | D -0.452 | Y 0.226

Variants of: B2
Assay: as above
Settings: Homo sapiens

Abundance fitness, by site and new letter:
K50: S -0.216 | P -0.177 | Y -0.104 | W -0.191 | N 0.185 | V -0.091 | M 0.168 | T -0.047 | R -0.05 | Q -0.032 | L 0.005
L59: V 0.036 | C -0.033 | N -0.676 | T -0.141 | R -0.123 | P -0.235 | S -0.312 | G 0.183 | Q -0.069 | E -0.373 | F -0.616 | I 0.099 | A 0.035 | Y -0.204 | W -0.348
F56: R -0.361 | S -0.105 | A -0.316 | W -0.364 | T -0.114 | E -0.648 | L -0.091 | K -0.757
Q57: S -0.145 | I -0.295 | C -0.352 | D -0.264 | E -0.052 | R 0.107 | Y -0.586 | H 0.056 | L -0.331 | F -0.346 | A -0.077 | T -0.121 | K 0.006 | V -0.156 | N 0.062 | W -0.28 | G 0.118
Y51: W -0.426 | K -0.276 | P -0.729 | G -0.922 | M 0.088 | V 0.014 | Q -0.785 | I -0.283 | N -0.877 | T -0.702 | F -0.053 | D -0.452 | C -0.298 | E -0.604 | H -0.743 | A -0.754 | L 0.186
C52: G -0.731 | M -0.673 | S -0.798 | P -0.949 | F -0.882 | Q -0.597 | W -1.14 | N -0.269 | D -0.622 | E -0.719 | R -0.839 | I -0.918 | H -0.486 | A -1 | V -0.93 | Y -0.49 | T -0.952 | L -0.817
H54: A 0.064 | E 0.189 | T 0.235 | V 0.036 | S 0.094 | Y -0.061 | K 0.117 | P 0.034 | W -0.157 | G 0.027 | Q 0.045 | I 0.14 | C 0.074 | R 0.108 | N 0.137 | F -0.01 | L -0.017
E53: D 0.169 | C -0.38 | H 0.061 | F -0.064 | P -0.359 | N 0.01 | A -0.216 | M -0.286 | G -0.25 | V -0.39 | T -0.235 | W -0.186 | R -0.027 | K -0.21 | L -0.207 | I -0.147
D55: L -0.933 | F -1.14 | K -0.918 | P -0.839 | N -0.606 | I -0.921 | V -0.964 | M -1.24 | Y -0.814 | G -0.636 | T -0.651 | H 0.018 | E -0.456 | S -0.667 | Q -0.753 | W -0.815 | R -0.747
M58: W -0.055 | K 0.043 | N 0.132 | L 0.04 | Q 0.013 | T 0.123 | F 0.154 | C 0.043 | G 0.223 | V 0.007 | R 0.066 | E 0.061 | P -0.06 | Y -0.309 | H -0.052 | A -0.004 | D -0.106
